Here are results for 91 substances from the Human Domainome abundance scans (Beltran et al. 2025).

± gives the uncertainty stated by the source.

The series can be described thus: abundance fitness (aPCA) (normalised: wild type 0, dead -1); higher = more abundant; growth selection in yeast, the domain comes from the species named. Conditions: Homo sapiens.
In the case of “DnaJ homolog subfamily B member 1 D57I, P25685”, the abundance fitness was -0.637 ± 0.22.
For “DnaJ homolog subfamily B member 1 D57K, P25685” the value was -0.123 ± 0.13; for “DnaJ homolog subfamily B member 1 D57L, P25685”, -0.53 ± 0.061; for “DnaJ homolog subfamily B member 1 D57M, P25685”, -0.366 ± 0.084.
The same measure for “DnaJ homolog subfamily B member 1 D57N, P25685”: -0.071 ± 0.29; for “DnaJ homolog subfamily B member 1 D57P, P25685”: -0.715 ± 0.19; for “DnaJ homolog subfamily B member 1 D57R, P25685”: -0.416 ± 0.072.
The same measure for “DnaJ homolog subfamily B member 1 D57S, P25685”: -0.097 ± 0.076; for “DnaJ homolog subfamily B member 1 D57T, P25685”: -0.072 ± 0.089.
As for “DnaJ homolog subfamily B member 1 D57V, P25685”, the abundance fitness was -0.317 ± 0.098.
“DnaJ homolog subfamily B member 1 D57W, P25685” had an abundance fitness of -0.812 ± 0.2.
The same measure for “DnaJ homolog subfamily B member 1 D57Y, P25685”: -0.45 ± 0.11; for “DnaJ homolog subfamily B member 1 D65A, P25685”: -0.123 ± 0.078; for “DnaJ homolog subfamily B member 1 D65E, P25685”: -0.152 ± 0.2.
The same measure for “DnaJ homolog subfamily B member 1 D65F, P25685”: -0.275 ± 0.18; for “DnaJ homolog subfamily B member 1 D65G, P25685”: -0.197 ± 0.11; for “DnaJ homolog subfamily B member 1 D65I, P25685”: -0.387 ± 0.1.
Substance “DnaJ homolog subfamily B member 1 D65L, P25685” had an abundance fitness of -0.116 ± 0.085.
“DnaJ homolog subfamily B member 1 D65M, P25685” came in with an abundance fitness of -0.162 ± 0.13.
“DnaJ homolog subfamily B member 1 D65N, P25685” registered an abundance fitness of -0.222 ± 0.19.
For “DnaJ homolog subfamily B member 1 D65P, P25685” the value was -0.164 ± 0.11; for “DnaJ homolog subfamily B member 1 D65Q, P25685”, -0.124 ± 0.11; for “DnaJ homolog subfamily B member 1 D65R, P25685”, -0.163 ± 0.1.
For “DnaJ homolog subfamily B member 1 D65S, P25685” the value was -0.158 ± 0.18; for “DnaJ homolog subfamily B member 1 D65T, P25685”, -0.228 ± 0.11; for “DnaJ homolog subfamily B member 1 D65V, P25685”, -0.262 ± 0.1.
For “DnaJ homolog subfamily B member 1 D65W, P25685” the value was -0.358 ± 0.19; for “DnaJ homolog subfamily B member 1 D65Y, P25685”, -0.261 ± 0.13.
Turning to “DnaJ homolog subfamily B member 1 E18A, P25685”, the abundance fitness is -0.067 ± 0.074.
For “DnaJ homolog subfamily B member 1 E18D, P25685” the value was 0.034 ± 0.16; for “DnaJ homolog subfamily B member 1 E18G, P25685”, -0.162 ± 0.066.
For “DnaJ homolog subfamily B member 1 E18H, P25685” the value was -0.066 ± 0.28; for “DnaJ homolog subfamily B member 1 E18I, P25685”, -0.173 ± 0.14.
The same measure for “DnaJ homolog subfamily B member 1 E18K, P25685”: -0.205 ± 0.11; for “DnaJ homolog subfamily B member 1 E18L, P25685”: -0.21 ± 0.071; for “DnaJ homolog subfamily B member 1 E18M, P25685”: -0.188 ± 0.074.
“DnaJ homolog subfamily B member 1 E18N, P25685” showed an abundance fitness of -0.045 ± 0.18.
“DnaJ homolog subfamily B member 1 E18Q, P25685”: the abundance fitness was -0.231 ± 0.083.
For “DnaJ homolog subfamily B member 1 E18S, P25685” the value was -0.093 ± 0.074.
“DnaJ homolog subfamily B member 1 E18T, P25685”: the abundance fitness is -0.081 ± 0.15.
For “DnaJ homolog subfamily B member 1 E18V, P25685” the value was -0.209 ± 0.061; for “DnaJ homolog subfamily B member 1 E18W, P25685”, -0.268 ± 0.061.
Turning to “DnaJ homolog subfamily B member 1 E19A, P25685”, the abundance fitness came to 0.022 ± 0.08.
For “DnaJ homolog subfamily B member 1 E19C, P25685” the value was -0.291 ± 0.12.
The same measure for “DnaJ homolog subfamily B member 1 E19D, P25685”: -0.089 ± 0.092.
For “DnaJ homolog subfamily B member 1 E19F, P25685” the value was -1.06 ± 0.08.
Consider “DnaJ homolog subfamily B member 1 E19G, P25685”, for which the abundance fitness was -0.539 ± 0.078.
The same measure for “DnaJ homolog subfamily B member 1 E19H, P25685”: -0.363 ± 0.14.
The same measure for “DnaJ homolog subfamily B member 1 E19I, P25685”: -0.659 ± 0.12.
“DnaJ homolog subfamily B member 1 E19K, P25685” had an abundance fitness of -0.396 ± 0.099.
The substance “DnaJ homolog subfamily B member 1 E19L, P25685” gave an abundance fitness of -0.32 ± 0.069.
Consider “DnaJ homolog subfamily B member 1 E19M, P25685”, for which the abundance fitness was -0.199 ± 0.1.
The same measure for “DnaJ homolog subfamily B member 1 E19N, P25685”: -0.273 ± 0.11.
The same measure for “DnaJ homolog subfamily B member 1 E19P, P25685”: -1.29 ± 0.11; for “DnaJ homolog subfamily B member 1 E19Q, P25685”: 0.118 ± 0.12.
Substance “DnaJ homolog subfamily B member 1 E19R, P25685” gave an abundance fitness of -0.452 ± 0.083.
Consider “DnaJ homolog subfamily B member 1 E19S, P25685”, for which the abundance fitness was -0.18 ± 0.069.
“DnaJ homolog subfamily B member 1 E19T, P25685” displayed an abundance fitness of -0.36 ± 0.073.
For “DnaJ homolog subfamily B member 1 E19V, P25685” the value was -0.491 ± 0.093; for “DnaJ homolog subfamily B member 1 E19W, P25685”, -1.25 ± 0.17; for “DnaJ homolog subfamily B member 1 E19Y, P25685”, -1.06 ± 0.14.
The same measure for “DnaJ homolog subfamily B member 1 E38A, P25685”: -0.29 ± 0.26.
The same measure for “DnaJ homolog subfamily B member 1 E38C, P25685”: -0.027 ± 0.11; for “DnaJ homolog subfamily B member 1 E38D, P25685”: -0.287 ± 0.24; for “DnaJ homolog subfamily B member 1 E38F, P25685”: -0.127 ± 0.12.
Substance “DnaJ homolog subfamily B member 1 E38G, P25685” had an abundance fitness of -0.068 ± 0.098.
For “DnaJ homolog subfamily B member 1 E38H, P25685” the value was 0.017 ± 0.2; for “DnaJ homolog subfamily B member 1 E38I, P25685”, -0.034 ± 0.15.
For “DnaJ homolog subfamily B member 1 E38L, P25685” the value was -0.099 ± 0.061.
The same measure for “DnaJ homolog subfamily B member 1 E38M, P25685”: -0.041 ± 0.1; for “DnaJ homolog subfamily B member 1 E38N, P25685”: -0.179 ± 0.2; for “DnaJ homolog subfamily B member 1 E38P, P25685”: -0.342 ± 0.14.
“DnaJ homolog subfamily B member 1 E38R, P25685” displayed an abundance fitness of -0.172 ± 0.091.
The same measure for “DnaJ homolog subfamily B member 1 E38S, P25685”: -0.106 ± 0.083.
The same measure for “DnaJ homolog subfamily B member 1 E38T, P25685”: -0.041 ± 0.089.
The same measure for “DnaJ homolog subfamily B member 1 E38V, P25685”: -0.006 ± 0.096; for “DnaJ homolog subfamily B member 1 E38W, P25685”: -0.019 ± 0.081; for “DnaJ homolog subfamily B member 1 E42A, P25685”: 0.002 ± 0.077.
Substance “DnaJ homolog subfamily B member 1 E42C, P25685” registered an abundance fitness of -0.048 ± 0.097.
The same measure for “DnaJ homolog subfamily B member 1 E42D, P25685”: 0.116 ± 0.11; for “DnaJ homolog subfamily B member 1 E42F, P25685”: -0.171 ± 0.1.
For “DnaJ homolog subfamily B member 1 E42G, P25685” the value was -0.153 ± 0.097; for “DnaJ homolog subfamily B member 1 E42H, P25685”, -0.003 ± 0.098.
For “DnaJ homolog subfamily B member 1 E42I, P25685” the value was -0.105 ± 0.12; for “DnaJ homolog subfamily B member 1 E42K, P25685”, 0.301 ± 0.14.
With “DnaJ homolog subfamily B member 1 E42L, P25685”, the abundance fitness came to 0.086 ± 0.055.
The substance “DnaJ homolog subfamily B member 1 E42M, P25685” gave an abundance fitness of 0.038 ± 0.079.
The same measure for “DnaJ homolog subfamily B member 1 E42N, P25685”: 0.027 ± 0.13; for “DnaJ homolog subfamily B member 1 E42P, P25685”: 0.028 ± 0.087; for “DnaJ homolog subfamily B member 1 E42Q, P25685”: -0.157 ± 0.12.
The same measure for “DnaJ homolog subfamily B member 1 E42R, P25685”: 0.024 ± 0.058.
